Experimental findings from patent US12697404B2, “PSMA-targeting conjugate and uses thereof” (priority 2021, dated 2026) are described below.

Data set [1] in a line: ^212Pb-PSMA-OM-00214 biodistribution study in xenograft-bearing mice. Format: in vivo, R2G2 mice. The conditions noted are these: male, R2G2, mouse, iv, 10 uCi, total radioactivity, labeled with 212Pb, 10 μCi per 10 ng of conjugate, one 10 μCi dose i.v. The method, then: (§1) A study was carried out in order to assess the biodistribution of PSMA-OM-00214, labeled with ^212Pb at a specific activity of 10 μCi per 10 ng of conjugate, in R2G2™ mice bearing a human prostate cancer cell tumor.
(§2) 15 male R2G2™ mice, 7-8 weeks old and weighting 33.9±3.5 g at study initiation, were injected subcutaneously, into the right flank, with 10^6 LNCaP cells in 100 μL of RPMI-1640 medium/Matrigel™ (v/v: 1/1). The tumors were let grow until they reached 200-300 mm^3 (as determined by the formula: volume=0.5×length×width^2).
(§3) Then animals were randomized based on tumor size and a group of 6 mice received intravenously (into a tail vein) one 10 μCi dose of ^212Pb-PSMA-OM-00214 (10 μCi per 10 ng of conjugate, 100 μL injection volume).
(§4) The mice were sacrificed at 4 hour post-dose injection.
(§5) Blood, bladder, reproductive organs, small intestine, colon with caecum, spleen, pancreas, kidneys, stomach, liver, lung, heart, brain, femoral bone, abdominal fat, skeletal muscle, tail (as injection site) and LNCaP tumor were collected from each sacrificed mouse, weighted and transferred to individual tubes for automatic gamma counter.
(§6) The tubes were counted for two min. The background was automatically subtracted from the counts. A standard consisting of 5 μL of the solution injected to the mice was also counted for each group of mice and used for decay correction.
(§7) The percent injected dose per gram, denoted % ID/g, was calculated for each organ collected (mean±standard deviation).

For data set [2], the system named is subcutaneous LNCaP tumors. Described as above. It is filed as in vivo, R2G2 mice. The conditions noted are these: labeled with 212Pb, one 10 μCi dose i.v., 4 hours post-injection. The method, then: as §1, §2, §3, §4, §5, §6, §7
The test system of data set [3] is subcutaneous LNCaP tumors. The data set can be described thus: Comparative biodistribution study in xenograft-bearing mice. Format: in vivo, athymic nude mice. Conditions: both labeled with 212Pb, one 10 μCi dose i.v., at 1 hour, 4 hours and 24 hours post-dose injection. The method, then: A study was carried out in order to compare the biodistribution of PSMA-OM-00214, labeled with ^212Pb at a specific activity of 10 μCi per 10 ng of conjugate, in athymic nude mice bearing a human prostate cancer cell tumor with that of a conjugate, denoted hereinafter “DOTAM-PSMA-617”, also labeled with ^212Pb and differing from PSMA-OM-00214 in that it comprises only one PSMA ligand instead of two.
Three batches of male athymic nude mice, 7-8 weeks old and weighting 27.90±2.6 g for the first batch, 27.90±2.5 g for the second batch and 29.50±2.5 g for the third batch, at study initiation, were injected subcutaneously, into the right flank, with 10^6 LNCaP cells in 100 μL of RPMI-1640 medium/Matrigel™ (v/v: 1/1). The tumors were let grow until they reached 200-300 mm^3.
The mice were divided into a plurality of groups each comprising 3 to 14 mice.
In any case, each mouse received intravenously either one 10 μCi dose of ^212Pb-PSMA-OM-00214 (10 μCi per 10 ng of conjugate, 100 μL injection volume) or one 10 μCi dose of ^212Pb-DOTAM-PSMA-617 (10 μCi per 10 ng of conjugate, 100 μL injection volume). […]
The tubes were counted for two min. […] Standards consisting of 5 μL of the solutions injected to the mice were also counted and used for decay correction.
as §7

The structures appear in SMILES notation. Where two headings read alike, the source gives them in different places. Some results are limits rather than exact numbers.

In the case of `NC(=O)CN1CCN(CC(=O)NCC2CCC(C(=O)NC(Cc3ccc4ccccc4c3)C(=O)NCCCCC(NC(=O)NC(CCC(=O)O)C(=O)O)C(=O)O)CC2)CCN(CC(N)=O)CCN(CC(=O)NCC2CCC(C(=O)NC(Cc3ccc4ccccc4c3)C(=O)NCCCCC(NC(=O)NC(CCC(=O)O)C(=O)O)C(=O)O)CC2)CC1` (centres unmarked) [PSMA-OM-00214], the tissue uptake at 4 h in data set [1] (LNCaP tumor, 4 hours post-injection, average, read-out: tumor uptake) is greater than 20 %ID/g. Also, the tissue uptake at 4 h in data set [1] (kidneys, 4 hours, read-out: kidney uptake) was roughly 10 %ID/g. Besides, in data set [2], the tumor/kidney ratio entry was “satisfactory” and the “uptake in all major non-tumor tissues” value is recorded as “very low uptake”. The “tumor uptake and retention compared with DOTAM-PSMA-617” value in data set [3] is on record as “significantly higher”.
